Laboratory results reported in paper doi:10.1101/2020.06.26.173310 (bioRxiv, 2020).
Like-named read-outs stand apart in the source and are kept apart here.

Assays:
[1] = molecular target: the molecule itself; assay: SEC
[2] = molecular target: the molecule itself; assay: SEC; remark: listed apart in the source

B1: response regulator from Agrobacterium fabrum (AtRR) (natural protein, Agrobacterium fabrum strain C58)
chain: MPELRPILLVEDNPRDLELTLTALEKCQLANEVVVARDGTEALDYLNVTGSHHNRPGGDPAVVLLDLKLPKVDGLEVLQTVKGSDHLRHIPVVMLTSSREEQDLVKSYELGVNAFVVKPVEFNQFFKAIQDLGVFWALLNE
For B1, the “stoichiometry N” value [1] was 2.

B2: bacteriophytochrome from Deinococcus radiodurans (DrBphP) (natural protein, Deinococcus radiodurans strain R1, UniProt Q9RZA4 1-755, looked up)
chain: MSRDPLPFFPPLYLGGPEITTENCEREPIHIPGSIQPHGALLTADGHSGEVLQMSLNAATFLGQEPTVLRGQTLAALLPEQWPALQAALPPGCPDALQYRATLDWPAAGHLSLTVHRVGELLILEFEPTEAWDSTGPHALRNAMFALESAPNLRALAEVATQTVRELTGFDRVMLYKFAPDATGEVIAEARREGLHAFLGHRFPASDIPAQARALYTRHLLRLTADTRAAAVPLDPVLNPQTNAPTPLGGAVLRATSPMHMQYLRNMGVGSSLSVSVVVGGQLWGLIACHHQTPYVLPPDLRTTLEYLGRLLSLQVQVKEAADVAAFRQSLREHHARVALAAAHSLSPHDTLSDPALDLLGLMRAGGLILRFEGRWQTLGEVPPAPAVDALLAWLETQPGALVQTDALGQLWPAGADLAPSAAGLLAISVGEGWSECLVWLRPELRLEVAWGGATPDQAKDDLGPRHSFDTYLEEKRGYAEPWHPGEIEEAQDLRDTLTGALGERLSVIRDLNRALTQSNAEWRQYGFVISHHMQEPVRLISQFAELLTRQPRAQDGSPDSPQTERITGFLLRETSRLRSLTQDLHTYTALLSAPPPVRRPTPLGRVVDDVLQDLEPRIADTGASIEVAPELPVIAADAGLLRDLLLHLIGNALTFGGPEPRIAVRTERQGAGWSIAVSDQGAGIAPEYQERIFLLFQRLGSLDEALGNGLGLPLCRKIAELHGGTLTVESAPGEGSTFRCWLPDAGPLPGAADA
modifications: biliverdin IXα chromophore, thioether linkage to the conserved cysteine within the PAS domain
B2 was tested, and the “stoichiometry N” value [2] was 2.
